Assays:
Experiment in all cases: cell-based or functional assay
[1] = biological target: HIV-1 Env of pseudovirus 1054_07_TC4_1499 (HIV-1)
[2] = biological target: HIV-1 Env of pseudovirus 1394C9G1(Rev-) (HIV-1)
[3] = biological target: HIV-1 Env of pseudovirus 191955_A11 (HIV-1)
[4] = biological target: HIV-1 Env of pseudovirus 231966.c02 (HIV-1)
[5] = biological target: HIV-1 Env of pseudovirus 246F C1G (HIV-1)
[6] = biological target: HIV-1 Env of pseudovirus 62357_14_D3_4589 (HIV-1)
[7] = biological target: HIV-1 Env of pseudovirus 6244_13_B5_4576 (HIV-1)
[8] = biological target: HIV-1 Env of pseudovirus 6480.v4.c25 (HIV-1)
[9] = biological target: HIV-1 Env of pseudovirus 6540.v4.c1 (HIV-1)
[10] = biological target: HIV-1 Env of pseudovirus 6952.v1.c20 (HIV-1)
[11] = biological target: HIV-1 Env of pseudovirus BJOX010000.06.2 (HIV-1)
[12] = biological target: HIV-1 Env of pseudovirus BJOX025000.01.1 (HIV-1)
[13] = biological target: HIV-1 Env of pseudovirus C1080.c03 (HIV-1)
[14] = biological target: HIV-1 Env of pseudovirus C3347.c11 (HIV-1)
[15] = biological target: HIV-1 Env of pseudovirus C4118.c09 (HIV-1)
[16] = biological target: HIV-1 Env of pseudovirus CAP45.2.00.G3 (HIV-1)
[17] = biological target: HIV-1 Env of pseudovirus CNE20 (HIV-1)
[18] = biological target: HIV-1 Env of pseudovirus CNE30 (HIV-1)
[19] = biological target: HIV-1 Env of pseudovirus CNE5 (HIV-1)
[20] = biological target: HIV-1 Env of pseudovirus CNE58 (HIV-1)
[21] = biological target: HIV-1 Env of pseudovirus Ce0682_E4 (HIV-1)
[22] = biological target: HIV-1 Env of pseudovirus Ce2010_F5 (HIV-1)
[23] = biological target: HIV-1 Env of pseudovirus Du156.12 (HIV-1)
[24] = biological target: HIV-1 Env of pseudovirus Du172.17 (HIV-1)
[25] = biological target: HIV-1 Env of pseudovirus Du422.1 (HIV-1)
[26] = biological target: HIV-1 Env of pseudovirus P0402_c2_11 (HIV-1)
[27] = biological target: HIV-1 Env of pseudovirus Q842.d12 (HIV-1)
[28] = biological target: HIV-1 Env of pseudovirus R3265.c06 (HIV-1)
[29] = biological target: HIV-1 Env of pseudovirus SC422661.8 (HIV-1)
[30] = biological target: HIV-1 Env of pseudovirus T251-18 (HIV-1)
[31] = biological target: HIV-1 Env of pseudovirus T257-31 (HIV-1)
[32] = biological target: HIV-1 Env of pseudovirus THRO4156.18 (HIV-1)
[33] = biological target: HIV-1 Env of pseudovirus X1193_c1 (HIV-1)
[34] = biological target: HIV-1 Env of pseudovirus X1632_S2_B10 (HIV-1)
[35] = biological target: HIV-1 Env of pseudovirus ZM109F.PB4 (HIV-1)
[36] = biological target: HIV-1 Env of pseudovirus ZM214M.PL15 (HIV-1)

3BNC117 (antibody)
neutralization IC50 [1]: 0.07 µg/mL
neutralization IC80 [1]: 0.49 µg/mL
neutralization IC50 [2]: > 50 µg/mL
neutralization IC80 [2]: > 50 µg/mL
neutralization IC50 [3]: > 50 µg/mL
neutralization IC80 [3]: > 50 µg/mL
IC50, titer in TZM.bl cells [4]: 0.29 µg/mL
IC80, titer in TZM.bl cells [4]: 2.37 µg/mL
neutralization IC50 [5]: 19.3 µg/mL
neutralization IC80 [5]: > 50 µg/mL
neutralization IC50 [6]: 0.06 µg/mL
neutralization IC80 [6]: 0.26 µg/mL
neutralization IC50 [7]: 0.04 µg/mL
neutralization IC80 [7]: 0.15 µg/mL
IC50, titer in TZM.bl cells [8]: 0.01 µg/mL
IC80, titer in TZM.bl cells [8]: 0.04 µg/mL
IC50, titer in TZM.bl cells [9]: > 50 µg/mL
IC80, titer in TZM.bl cells [9]: > 50 µg/mL
IC50, titer in TZM.bl cells [10]: 0.15 µg/mL
IC80, titer in TZM.bl cells [10]: 0.75 µg/mL
IC50, titer in TZM.bl cells [11]: 1.58 µg/mL
IC80, titer in TZM.bl cells [11]: 10.4 µg/mL
IC50, titer in TZM.bl cells [12]: 0.05 µg/mL
IC80, titer in TZM.bl cells [12]: 0.2 µg/mL
IC50, titer in TZM.bl cells [13]: 0.25 µg/mL
IC80, titer in TZM.bl cells [13]: 1.73 µg/mL
IC50, titer in TZM.bl cells [14]: 0.03 µg/mL
IC80, titer in TZM.bl cells [14]: 0.13 µg/mL
IC50, titer in TZM.bl cells [15]: 0.09 µg/mL
IC80, titer in TZM.bl cells [15]: 0.52 µg/mL
neutralization IC50 [16]: 3.88 µg/mL
neutralization IC80 [16]: > 50 µg/mL
neutralization IC50 [17]: > 50 µg/mL
neutralization IC80 [17]: > 50 µg/mL
neutralization IC50 [18]: 0.26 µg/mL
neutralization IC80 [18]: 0.85 µg/mL
IC50, titer in TZM.bl cells [19]: 0.28 µg/mL
IC80, titer in TZM.bl cells [19]: 1.28 µg/mL
neutralization IC50 [20]: 0.25 µg/mL
neutralization IC80 [20]: 2.03 µg/mL
neutralization IC50 [21]: 0.03 µg/mL
neutralization IC80 [21]: 0.15 µg/mL
neutralization IC50 [22]: 0.05 µg/mL
neutralization IC80 [22]: 0.21 µg/mL
neutralization IC50 [23]: 0.02 µg/mL
neutralization IC80 [23]: 0.08 µg/mL
neutralization IC50 [24]: 1.19 µg/mL
neutralization IC80 [24]: 8.9 µg/mL
neutralization IC50 [25]: > 50 µg/mL
neutralization IC80 [25]: > 50 µg/mL
IC50, titer in TZM.bl cells [26]: 0.06 µg/mL
IC80, titer in TZM.bl cells [26]: 0.38 µg/mL
neutralization IC50 [27]: < 0.01 µg/mL
neutralization IC80 [27]: 0.01 µg/mL
IC50, titer in TZM.bl cells [28]: 0.48 µg/mL
IC80, titer in TZM.bl cells [28]: 13 µg/mL
neutralization IC50 [29]: 0.02 µg/mL
neutralization IC80 [29]: 0.08 µg/mL
IC50, titer in TZM.bl cells [30]: 0.26 µg/mL
IC80, titer in TZM.bl cells [30]: 0.82 µg/mL
neutralization IC50 [31]: 0.06 µg/mL
neutralization IC80 [31]: 0.37 µg/mL
neutralization IC50 [32]: 1.76 µg/mL
neutralization IC80 [32]: 10.1 µg/mL
IC50, titer in TZM.bl cells [33]: 0.06 µg/mL
IC80, titer in TZM.bl cells [33]: 0.25 µg/mL
IC50, titer in TZM.bl cells [34]: 15.7 µg/mL
IC80, titer in TZM.bl cells [34]: > 50 µg/mL
neutralization IC50 [35]: 0.14 µg/mL
neutralization IC80 [35]: 0.88 µg/mL
neutralization IC50 [36]: 0.06 µg/mL
neutralization IC80 [36]: 0.52 µg/mL

— patent publication US20230002480A1
